Patent US20230183352A1 (published 2023)
Read-outs that look alike come from different tables or passages of the source.

Experiments:
[1] = target: T1, Claudin 18.2 (CLDN18.2), expressed on CHOS-CLDN 18.2 / HEK293-CLDN 18.2 / HCC827-CLDN 18.2 cells (human, UniProt P56856 1-261); assay: cell ELISA
[2] = target: T1, Claudin 18.2 (CLDN18.2), expressed on …; assay: cell ELISA; remark: listed apart in the source

Row | EC50 [1] [µg/mL] | EC50 [2] [µg/mL] | Binder
1 | 0.187 | – | QP14581453 (antibody, V domains shown) VH: QVQLVQSGAEVKKPGASVKVSCKASGYTFTNYFVHWVKQAPGQGLEWIGYINPYNDDTKYNEKFKGKATLTRDTSTSTVYMELSSLRSEDTAVYYCLSLRFFAYWGQGTLVTVSS VL: DIVMTQSPDSLAVSLGERATISCKSSQSLLNSGNQKNYLTWYQQKPGQAPKLLIYWASTRESGVPDRFSGSGSGTDFTLTISSLQAEDVAVYYCQNDYSYPLTFGGGTKVEIKR
2 | 0.21 | – | QP14581454 (antibody, V domains shown) VH: QVQLVQSGAEVKKPGASVKVSCKASGYTFTNYFVHWVKQAPGQGLEWIGYINPYNDDTKYNEKFKGKATLTRDTSTSTVYMELSSLRSEDTAVYYCLSLRFFAYWGQGTLVTVSS VL: DIVMTQSPDSLAVSLGERATISCKSSQSLLNSGNQKNYLTWYQQKPGQAPKLLIYWASTRESGVPDRFSGSGSGTDFTLTISSVQAEDVAVYFCQNDYSYPLTFGGGTKVEIKR
3 | 0.213 | – | QP14561454 (antibody, V domains shown) VH: QVQLVQSGAEVKKPGASVKVSCKASGYTFTNYFVHWVRQAPGQGLEWMGYINPYNDDTKYNEKFKGRVTMTRDTSTSTVYMELSSLRSEDTAVYYCLSLRFFAYWGQGTLVTVSS VL: DIVMTQSPDSLAVSLGERATISCKSSQSLLNSGNQKNYLTWYQQKPGQAPKLLIYWASTRESGVPDRFSGSGSGTDFTLTISSVQAEDVAVYFCQNDYSYPLTFGGGTKVEIKR
4 | 0.944 | – | QP201202 (antibody, V domains shown) VH: EVQLQQSGPELVKPGASVKMSCKASGYTFTNYFVHWVKQKPGQGLEWIGYINPYNDDTKYNEKFKGKATLTSDKSSSTAYMDLSSLTSEDSAVYYCLSLRFFAYWGQGTLVTVSA VL: DIVMTQSPSSLTVTAGEKVTMSCKSSQSLLNSGNQKNYLTWYQQKPGQAPKLLIYWASTRESGVPDRFIGSGSGTDFTLTISHVQAEDLAVYFCQNDYSYPLTFGAGTNLELK
5 | – | 0.243 | QP199200 (antibody, V domains shown) VH: DVQLVESGGGLVQPGGSRKLSCAASGFTFSSFGMHWVRQAPEKGLEWVAYISSGSNSIYYVDTVKGRFTISRDNPKNTLFLQMTSLKSEDTAMYYCARNAYYGNSFDYWGQGTTLTVSS VL: DIVMTQSPSSLTVTAGEKVTMSCKSSQSLLNSGNQKNYLTWYQQKPGQPPKLLIYWASTRESGVPDRFTGSGSGTVFTLTISSVQAEDLAVYFCQNNYYYPLTFGAGTKLELK
6 | 0.132 | – | QP14431442 (antibody, V domains shown) VH: QVQLVQSGAEVKKPGASVKVSCKASGYAFSSYWMNWVRQAPGQGLEWMGQIYPGNGDTTYNGKFKGRVTMTRDTSTSTVYMELSSLRSEDTAVYYCARFVKGNAMDYWGQGTLVTVSS VL: DIVMTQSPDSLAVSLGERATISCKSSQSLLNSGNQKNYLTWYQQKPGQPPKMLIYWASTRESGVPDRFSGSGSGIDFTLTISSVQAEDVAVYYCQNAYSYPFTFGQGTKLEIK
7 | 0.279 | – | QP14581452 (antibody, V domains shown) VH: QVQLVQSGAEVKKPGASVKVSCKASGYTFTNYFVHWVKQAPGQGLEWIGYINPYNDDTKYNEKFKGKATLTRDTSTSTVYMELSSLRSEDTAVYYCLSLRFFAYWGQGTLVTVSS VL: DIVMTQSPDSLAVSLGERATINCKSSQSLLNSGNQKNYLTWYQQKPGQPPKLLIYWASTRESGVPDRFSGSGSGTDFTLTISSLQAEDVAVYYCQNDYSYPLTFGGGTKVEIK
8 | 0.134 | – | QP14451441 (antibody, V domains shown) VH: QVQLVQSGAEVKKPGASVKVSCKASGYAFSSYWMNWVRQAPGQGLEWIGQIYPGNGDTTYNGKFKGRVTMTADKSTSTVYMELSSLRSEDTAVYFCARFVKGNAMDYWGQGTLVTVSS VL: DIVMTQSPDSLAVSLGERATISCKSSQSLLNSGNQKNYLTWYQQKPGQPPKLLIYWASTRESGVPDRFSGSGSGIDFTLTISSVQAEDVAVYYCQNAYSYPFTFGQGTKLEIK
9 | – | 0.158 | QP14491446 (antibody, V domains shown) VH: EVQLVESGGGLVQPGGSLRLSCAASGFTFSSFGMHWVRQAPGKGLEWVSYISSGSNSIYYVDTVKGRFTISRDNAKNSLYLQMNSLRDEDTAVYYCARNAYYGNSFDYWGQGTLVTVSS VL: DIVMTQSPDSLAVSLGERATINCKSSQSLLNSGNQKNYLTWYQQKPGQPPKLLIYWASTRESGVPDRFSGSGSGTDFTLTISSLQAEDVAVYYCQNNYYYPLTFGGGTKVEIK
10 | 0.265 | – | QP14571455 (antibody, V domains shown) VH: QVQLVQSGAEVKKPGASVKVSCKASGYTFTNYFVHWVRQAPGQGLEWIGYINPYNDDTKYNEKFKGRVTLTRDTSTSTVYMELSSLRSEDTAVYYCLSLRFFAYWGQGTLVTVSS VL: DIVMTQSPDSLAVSLGERATISCKSSQSLLNSGNQKNYLTWYQQKPGQAPKLLIYWASTRESGVPDRFIGSGSGTDFTLTISSVQAEDVAVYFCQNDYSYPLTFGGGTKVEIK
11 | 0.242 | – | QP14571452 (antibody, V domains shown) VH: QVQLVQSGAEVKKPGASVKVSCKASGYTFTNYFVHWVRQAPGQGLEWIGYINPYNDDTKYNEKFKGRVTLTRDTSTSTVYMELSSLRSEDTAVYYCLSLRFFAYWGQGTLVTVSS VL: DIVMTQSPDSLAVSLGERATINCKSSQSLLNSGNQKNYLTWYQQKPGQPPKLLIYWASTRESGVPDRFSGSGSGTDFTLTISSLQAEDVAVYYCQNDYSYPLTFGGGTKVEIK
12 | – | 0.119 | QP14651462 (antibody, V domains shown) VH: EVQLVQSGAEVKKPGASVKVSCKASGYTFTSYIMHWVRQAPGQGLEWIGYINPYNDGTKYNEKFKGRVTLTSDKSTSTVYMELSSLRSEDTAVYYCARLGFTTRNAMDYWGQGTLVTVSS VL: DIVMTQSPDSLAVSLGERATINCKSSQSLLNSGNQKNYLAWYQQKPGQPPKLLIYGASTRESGVPDRFTGSGSGTDFTLTISSVQAEDVAVYYCQNDHSYPFTFGQGTKLEIK
13 | 0.389 | – | QP14561452 (antibody, V domains shown) VH: QVQLVQSGAEVKKPGASVKVSCKASGYTFTNYFVHWVRQAPGQGLEWMGYINPYNDDTKYNEKFKGRVTMTRDTSTSTVYMELSSLRSEDTAVYYCLSLRFFAYWGQGTLVTVSS VL: DIVMTQSPDSLAVSLGERATINCKSSQSLLNSGNQKNYLTWYQQKPGQPPKLLIYWASTRESGVPDRFSGSGSGTDFTLTISSLQAEDVAVYYCQNDYSYPLTFGGGTKVEIK
14 | 0.246 | – | QP14561455 (antibody, V domains shown) VH: QVQLVQSGAEVKKPGASVKVSCKASGYTFTNYFVHWVRQAPGQGLEWMGYINPYNDDTKYNEKFKGRVTMTRDTSTSTVYMELSSLRSEDTAVYYCLSLRFFAYWGQGTLVTVSS VL: DIVMTQSPDSLAVSLGERATISCKSSQSLLNSGNQKNYLTWYQQKPGQAPKLLIYWASTRESGVPDRFIGSGSGTDFTLTISSVQAEDVAVYFCQNDYSYPLTFGGGTKVEIK
15 | 0.796 | – | QP14571453 (antibody, V domains shown) VH: QVQLVQSGAEVKKPGASVKVSCKASGYTFTNYFVHWVRQAPGQGLEWIGYINPYNDDTKYNEKFKGRVTLTRDTSTSTVYMELSSLRSEDTAVYYCLSLRFFAYWGQGTLVTVSS VL: DIVMTQSPDSLAVSLGERATISCKSSQSLLNSGNQKNYLTWYQQKPGQAPKLLIYWASTRESGVPDRFSGSGSGTDFTLTISSLQAEDVAVYYCQNDYSYPLTFGGGTKVEIK
16 | 0.357 | – | QP14561453 (antibody, V domains shown) VH: QVQLVQSGAEVKKPGASVKVSCKASGYTFTNYFVHWVRQAPGQGLEWMGYINPYNDDTKYNEKFKGRVTMTRDTSTSTVYMELSSLRSEDTAVYYCLSLRFFAYWGQGTLVTVSS VL: DIVMTQSPDSLAVSLGERATISCKSSQSLLNSGNQKNYLTWYQQKPGQAPKLLIYWASTRESGVPDRFSGSGSGTDFTLTISSLQAEDVAVYYCQNDYSYPLTFGGGTKVEIK
17 | 0.086 | – | QP14441440 (antibody, V domains shown) VH: QVQLVQSGAEVKKPGASVKVSCKASGYAFSSYWMNWVRQAPGQGLEWIGQIYPGNGDTTYNGKFKGRVTMTADKSTSTVYMELSSLRSEDTAVYYCARFVKGNAMDYWGQGTLVTVSS VL: DIVMTQSPDSLAVSLGERATISCKSSQSLLNSGNQKNYLTWYQQKPGQPPKLLIYWASTRESGVPDRFSGSGSGTDFTLTISSLQAEDVAVYYCQNAYSYPFTFGQGTKLEIK
18 | 0.357 | – | QP14571454 (antibody, V domains shown) VH: QVQLVQSGAEVKKPGASVKVSCKASGYTFTNYFVHWVRQAPGQGLEWIGYINPYNDDTKYNEKFKGRVTLTRDTSTSTVYMELSSLRSEDTAVYYCLSLRFFAYWGQGTLVTVSS VL: DIVMTQSPDSLAVSLGERATISCKSSQSLLNSGNQKNYLTWYQQKPGQAPKLLIYWASTRESGVPDRFSGSGSGTDFTLTISSVQAEDVAVYFCQNDYSYPLTFGGGTKVEIK
19 | 0.109 | – | QP14441439 (antibody, V domains shown) VH: QVQLVQSGAEVKKPGASVKVSCKASGYAFSSYWMNWVRQAPGQGLEWIGQIYPGNGDTTYNGKFKGRVTMTADKSTSTVYMELSSLRSEDTAVYYCARFVKGNAMDYWGQGTLVTVSS VL: DIVMTQSPDSLAVSLGERATINCKSSQSLLNSGNQKNYLTWYQQKPGQPPKLLIYWASTRESGVPDRFSGSGSGTDFTLTISSLQAEDVAVYYCQNAYSYPFTFGQGTKLEIK
20 | 0.159 | – | QP14431441 (antibody, V domains shown) VH: QVQLVQSGAEVKKPGASVKVSCKASGYAFSSYWMNWVRQAPGQGLEWMGQIYPGNGDTTYNGKFKGRVTMTRDTSTSTVYMELSSLRSEDTAVYYCARFVKGNAMDYWGQGTLVTVSS VL: DIVMTQSPDSLAVSLGERATISCKSSQSLLNSGNQKNYLTWYQQKPGQPPKLLIYWASTRESGVPDRFSGSGSGIDFTLTISSVQAEDVAVYYCQNAYSYPFTFGQGTKLEIK
21 | 0.243 | – | QP14441442 (antibody, V domains shown) VH: QVQLVQSGAEVKKPGASVKVSCKASGYAFSSYWMNWVRQAPGQGLEWIGQIYPGNGDTTYNGKFKGRVTMTADKSTSTVYMELSSLRSEDTAVYYCARFVKGNAMDYWGQGTLVTVSS VL: DIVMTQSPDSLAVSLGERATISCKSSQSLLNSGNQKNYLTWYQQKPGQPPKMLIYWASTRESGVPDRFSGSGSGIDFTLTISSVQAEDVAVYYCQNAYSYPFTFGQGTKLEIK
